# B1: STK4 (residues 1–326) K59R [human] / HOIP (residues 854–1072) [not stated] (parent complex)
# chain 1: METVQLRNPPRRQLKKLDEDSLTKQPEEVFDVLEKLGEGSYGSVYKAIHKETGQIVAIRQVPVESDLQEIIKEISIMQQCDSPHVVKYYGSYFKNTDLWIVMEYCGAGSVSDIIRLRNKTLTEDEIATILQSTLKGLEYLHFMRKIHRDIKAGNILLNTEGHAKLADFGVAGQLTDTMAKRNTVIGTPFWMAPEVIQEIGYNCVADIWSLGITAIEMAEGKPPYADIHPMRAIFMIPTNPPPTFRKPELWSDNFTDFVKQCLVKSPEQRATATQLLQHPFVRSAKGVSILRDLINEAMDVKLKRQESQQREVDQDDEENSEEDEMD
# chain 2: EYQAQGLAMYLQENGIDCPKCKFSYALARGGCMHFHCTQCRHQFCSGCYNAFYAKNKCPEPNCRVKKSLHGHHPRDCLFYLRDWTALRLQKLLQDNNVMFNTEPPAGARAVPGGGCRVIEQKEVPNGLRDEACGKETPAGYAGLCQAHYKEYLVSLINAHSLDPATLYEVEELETATERYLHVRPQPLAGEDPPAYQARLLQKLTEEVPLGQSIPRRRK
# Variants of: B1
# Test: ITC
row,Variant,Kd
1,chain 1 R231E,97.9 µM
